Reference: patent publication US20170158755A1 (PROTHENA BIOSCIENCES, published 2017)
Residue numbers refer to the chain shown, from its start. Each block holds one binder with its values, some of them ahead of it.

What was measured:
[1] = molecular target: T1, mouse MCAM-Fc fusion protein (mouse; human, UniProt Q8R2Y2 24-563); experiment: flow cytometry on 293 cells displaying LAMA4 G-domain variants; % binding
T1 construct: extracellular domain; Made in house; also called mMCAM-Fc; 650-conjugated mouse MCAM-Fc; not shown: human IgG1 (Fc part of the fusion)
T1 sequence (looked up): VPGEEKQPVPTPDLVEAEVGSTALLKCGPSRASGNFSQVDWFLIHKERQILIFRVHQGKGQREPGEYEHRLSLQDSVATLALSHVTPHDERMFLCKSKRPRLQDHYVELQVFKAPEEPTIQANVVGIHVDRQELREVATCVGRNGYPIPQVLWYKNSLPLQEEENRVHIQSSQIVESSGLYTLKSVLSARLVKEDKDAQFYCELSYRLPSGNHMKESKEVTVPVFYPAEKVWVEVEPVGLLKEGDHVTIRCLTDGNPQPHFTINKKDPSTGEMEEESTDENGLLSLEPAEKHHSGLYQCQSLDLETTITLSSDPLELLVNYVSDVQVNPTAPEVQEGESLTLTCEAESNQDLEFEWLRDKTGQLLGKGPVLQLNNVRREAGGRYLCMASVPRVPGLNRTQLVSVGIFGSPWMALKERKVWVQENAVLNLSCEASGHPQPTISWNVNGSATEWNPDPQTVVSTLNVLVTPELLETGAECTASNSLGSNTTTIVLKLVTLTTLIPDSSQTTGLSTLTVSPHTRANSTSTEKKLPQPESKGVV
Text: LGde1 has a full-length G domain (i.e., LG1-5) with LG1 deleted, LGde2 has a full-length G domain with LG2 deleted, and LGde3 has a full-length G domain with LG3 deleted. Recombinant MCAM-Fc protein was able to specifically bind 293 cells expressing LAMA4 variants LG1-5, LG1-3, and LGde 1 (LG23), but not 293 cells expressing LAMA 4 variants LG4-5, LGde2 (LG13), or LGde3 (LG12).

[2] = molecular target: T2, human MCAM-Fc fusion protein (human, UniProt P43121 24-559); experiment: ELISA, MCAM-Fc captured via goat anti-human Fab
T2 construct: Made in house by fusing the extracellular domain of human MCAM to human IgG1, produced in CHO cells; also called hMCAM-Fc; not shown: human IgG1 (Fc part of the fusion)
T2 sequence: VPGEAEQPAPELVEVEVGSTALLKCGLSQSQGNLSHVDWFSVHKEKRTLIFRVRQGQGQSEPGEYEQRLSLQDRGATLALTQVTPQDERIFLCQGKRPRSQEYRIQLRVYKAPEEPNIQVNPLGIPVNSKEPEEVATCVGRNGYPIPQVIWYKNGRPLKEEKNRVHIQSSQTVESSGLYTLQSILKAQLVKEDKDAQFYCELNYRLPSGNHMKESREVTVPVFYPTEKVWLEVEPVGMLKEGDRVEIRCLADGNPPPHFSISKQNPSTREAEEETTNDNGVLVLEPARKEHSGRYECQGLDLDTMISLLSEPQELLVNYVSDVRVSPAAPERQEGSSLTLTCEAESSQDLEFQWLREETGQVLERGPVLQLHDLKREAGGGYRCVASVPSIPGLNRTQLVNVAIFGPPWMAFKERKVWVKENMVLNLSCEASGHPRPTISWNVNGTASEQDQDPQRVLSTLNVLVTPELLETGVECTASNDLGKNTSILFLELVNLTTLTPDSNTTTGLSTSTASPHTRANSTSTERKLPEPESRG
Description: To determine the LAMA4 epitope(s)/domain(s) necessary for MCAM binding, recombinant MCAM-Fc (or Fc control) protein was prebound to plates via goat anti-human Fabs overnight. Truncated recombinant variants of the LAMA4 G domain (and Tau control protein) were assayed for their ability to bind MCAM-Fc protein as described in the Materials and Methods and as shown in FIG. 6. The results are presented in arbitrary units (A.U.) on the y-axis. […] Therefore, the LG1-3 modules of the G domain of LAMA4 mediate LAMA4-MCAM interactions.

[3] = molecular target: T3, human LAMA4 G domain (LG1-5) displayed on 293 cells (human, UniProt Q16363 830-1821); experiment: flow cytometry on LAMA4-displaying 293 cells, anti-human-650 secondary antibody; MFI (binding experiment by paragraph 395 and by the plot; the legend paragraph 38 calls it blocking)
T3 construct: the vector's tags and membrane anchor are not written here; also called LAMA4-displaying human 293 cells; full length
T3 sequence: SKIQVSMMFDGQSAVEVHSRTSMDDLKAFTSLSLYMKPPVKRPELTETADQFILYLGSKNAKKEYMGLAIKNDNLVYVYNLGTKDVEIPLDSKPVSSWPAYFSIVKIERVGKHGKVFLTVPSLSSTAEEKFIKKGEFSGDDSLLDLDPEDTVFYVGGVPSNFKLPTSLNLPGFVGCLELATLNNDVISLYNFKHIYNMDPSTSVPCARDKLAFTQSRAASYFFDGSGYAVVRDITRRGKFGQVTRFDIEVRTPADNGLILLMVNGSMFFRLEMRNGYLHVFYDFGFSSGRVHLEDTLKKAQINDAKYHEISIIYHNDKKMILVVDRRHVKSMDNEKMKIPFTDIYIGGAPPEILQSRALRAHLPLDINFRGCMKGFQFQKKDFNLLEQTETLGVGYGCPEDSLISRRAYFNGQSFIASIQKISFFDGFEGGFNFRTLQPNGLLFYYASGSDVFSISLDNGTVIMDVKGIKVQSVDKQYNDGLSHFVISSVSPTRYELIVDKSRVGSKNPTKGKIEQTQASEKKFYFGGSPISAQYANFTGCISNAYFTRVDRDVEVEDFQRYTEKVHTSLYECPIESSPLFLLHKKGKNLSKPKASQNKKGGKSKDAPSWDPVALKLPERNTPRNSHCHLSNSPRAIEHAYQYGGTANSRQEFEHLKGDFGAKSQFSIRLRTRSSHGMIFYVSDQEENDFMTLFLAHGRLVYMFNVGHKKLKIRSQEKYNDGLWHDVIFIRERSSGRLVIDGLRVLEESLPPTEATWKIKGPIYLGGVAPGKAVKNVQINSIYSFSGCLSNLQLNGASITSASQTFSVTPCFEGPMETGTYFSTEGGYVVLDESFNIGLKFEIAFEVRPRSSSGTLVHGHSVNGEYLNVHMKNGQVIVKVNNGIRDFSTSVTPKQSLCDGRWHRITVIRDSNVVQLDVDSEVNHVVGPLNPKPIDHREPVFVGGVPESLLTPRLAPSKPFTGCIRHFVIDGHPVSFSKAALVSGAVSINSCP
Description: (§1) Position L49 of the 19C12 variable light chain was substituted with other amino acids, such as I, T, A, M, Q, or E (see Table 6) because they may confer improved stability relative to substitution to a cysteine. The 19C12 cysteine replacement variants were tested for their ability to bind LAMA4-displaying cells (FIG. 13) and to block the binding of LAMA4 to its ligand MCAM (FIG. 14). To test LAMA4 binding capacity, serially diluted antibodies were pre-incubated with LAMA4-displaying human 293 cells, followed by anti-human-650 secondary antibody incubation. […] Fluorescent signal was assessed via flow cytometric analyses and plotted as mean fluorescence intensity (MFI). The 19C12 cysteine replacement variants retain their MCAM blocking and LAMA4 binding activity to varying degrees.

recombinant laminin 411 = molecular target: T4, recombinant laminin 411 (human, UniProt P07942 22-1786; P11047 34-1609, limits assumed); experiment: flow cytometric blocking assay; antibody pre-incubated with 650-labeled laminin 411; blocked partner: human MCAM on CHO cells; MFI (blocking experiment by paragraph 395 and by the 411 / no 411 controls on the sheet; the legend paragraph 39 calls it binding)
T4 construct: also called LAMA4 in complex with its gamma1 and beta1 chains
Description: as §1

T4 sequence (chain, as listed by the source limits assumed, chain 1 of 3): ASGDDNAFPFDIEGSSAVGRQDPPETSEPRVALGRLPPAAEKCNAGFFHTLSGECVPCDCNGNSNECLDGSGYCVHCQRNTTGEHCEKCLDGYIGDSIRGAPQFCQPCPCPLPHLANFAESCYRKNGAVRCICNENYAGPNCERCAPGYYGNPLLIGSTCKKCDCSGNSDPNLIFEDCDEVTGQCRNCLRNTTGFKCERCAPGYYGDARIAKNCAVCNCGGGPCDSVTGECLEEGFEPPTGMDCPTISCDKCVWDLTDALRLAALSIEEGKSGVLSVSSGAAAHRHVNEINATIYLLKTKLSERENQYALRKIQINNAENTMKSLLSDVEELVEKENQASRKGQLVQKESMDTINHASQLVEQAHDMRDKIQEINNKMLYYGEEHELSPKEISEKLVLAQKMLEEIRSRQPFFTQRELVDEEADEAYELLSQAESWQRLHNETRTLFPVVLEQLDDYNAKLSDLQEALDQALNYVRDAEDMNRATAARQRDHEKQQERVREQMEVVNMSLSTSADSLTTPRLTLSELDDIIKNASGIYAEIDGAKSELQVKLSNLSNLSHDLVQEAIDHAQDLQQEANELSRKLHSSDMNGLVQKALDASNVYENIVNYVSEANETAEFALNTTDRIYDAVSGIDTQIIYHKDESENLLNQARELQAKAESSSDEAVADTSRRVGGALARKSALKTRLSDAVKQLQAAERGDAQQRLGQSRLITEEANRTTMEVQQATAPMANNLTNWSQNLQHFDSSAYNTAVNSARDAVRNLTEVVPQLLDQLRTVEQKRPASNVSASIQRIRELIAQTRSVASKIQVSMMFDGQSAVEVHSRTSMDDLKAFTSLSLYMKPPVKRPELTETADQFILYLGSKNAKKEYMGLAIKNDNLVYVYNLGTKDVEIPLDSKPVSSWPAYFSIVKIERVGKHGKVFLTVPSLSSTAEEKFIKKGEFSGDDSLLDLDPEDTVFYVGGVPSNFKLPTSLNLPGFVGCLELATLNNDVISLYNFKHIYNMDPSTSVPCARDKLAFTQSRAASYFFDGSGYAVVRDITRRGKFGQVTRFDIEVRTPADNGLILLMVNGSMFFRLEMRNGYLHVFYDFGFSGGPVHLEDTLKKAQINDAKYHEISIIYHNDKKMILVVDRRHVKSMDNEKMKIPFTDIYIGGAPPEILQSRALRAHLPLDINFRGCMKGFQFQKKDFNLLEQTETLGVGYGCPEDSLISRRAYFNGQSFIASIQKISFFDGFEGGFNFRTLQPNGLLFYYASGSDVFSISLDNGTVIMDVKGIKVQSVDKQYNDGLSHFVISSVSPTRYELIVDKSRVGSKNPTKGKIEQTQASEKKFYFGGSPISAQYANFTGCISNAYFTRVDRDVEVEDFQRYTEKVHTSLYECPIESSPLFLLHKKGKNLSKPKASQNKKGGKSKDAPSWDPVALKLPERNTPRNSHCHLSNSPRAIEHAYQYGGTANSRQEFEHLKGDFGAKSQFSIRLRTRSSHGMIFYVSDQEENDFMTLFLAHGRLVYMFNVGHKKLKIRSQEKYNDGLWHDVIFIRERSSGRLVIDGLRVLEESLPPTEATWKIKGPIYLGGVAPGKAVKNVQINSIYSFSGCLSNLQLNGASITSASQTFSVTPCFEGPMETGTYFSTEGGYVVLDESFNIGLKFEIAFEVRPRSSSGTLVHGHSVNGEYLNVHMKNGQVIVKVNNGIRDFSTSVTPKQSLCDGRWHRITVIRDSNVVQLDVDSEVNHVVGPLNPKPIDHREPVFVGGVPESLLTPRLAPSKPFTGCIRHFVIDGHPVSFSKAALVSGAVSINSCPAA
T4 sequence (P07942 22-1786 limits assumed, chain 2 of 3): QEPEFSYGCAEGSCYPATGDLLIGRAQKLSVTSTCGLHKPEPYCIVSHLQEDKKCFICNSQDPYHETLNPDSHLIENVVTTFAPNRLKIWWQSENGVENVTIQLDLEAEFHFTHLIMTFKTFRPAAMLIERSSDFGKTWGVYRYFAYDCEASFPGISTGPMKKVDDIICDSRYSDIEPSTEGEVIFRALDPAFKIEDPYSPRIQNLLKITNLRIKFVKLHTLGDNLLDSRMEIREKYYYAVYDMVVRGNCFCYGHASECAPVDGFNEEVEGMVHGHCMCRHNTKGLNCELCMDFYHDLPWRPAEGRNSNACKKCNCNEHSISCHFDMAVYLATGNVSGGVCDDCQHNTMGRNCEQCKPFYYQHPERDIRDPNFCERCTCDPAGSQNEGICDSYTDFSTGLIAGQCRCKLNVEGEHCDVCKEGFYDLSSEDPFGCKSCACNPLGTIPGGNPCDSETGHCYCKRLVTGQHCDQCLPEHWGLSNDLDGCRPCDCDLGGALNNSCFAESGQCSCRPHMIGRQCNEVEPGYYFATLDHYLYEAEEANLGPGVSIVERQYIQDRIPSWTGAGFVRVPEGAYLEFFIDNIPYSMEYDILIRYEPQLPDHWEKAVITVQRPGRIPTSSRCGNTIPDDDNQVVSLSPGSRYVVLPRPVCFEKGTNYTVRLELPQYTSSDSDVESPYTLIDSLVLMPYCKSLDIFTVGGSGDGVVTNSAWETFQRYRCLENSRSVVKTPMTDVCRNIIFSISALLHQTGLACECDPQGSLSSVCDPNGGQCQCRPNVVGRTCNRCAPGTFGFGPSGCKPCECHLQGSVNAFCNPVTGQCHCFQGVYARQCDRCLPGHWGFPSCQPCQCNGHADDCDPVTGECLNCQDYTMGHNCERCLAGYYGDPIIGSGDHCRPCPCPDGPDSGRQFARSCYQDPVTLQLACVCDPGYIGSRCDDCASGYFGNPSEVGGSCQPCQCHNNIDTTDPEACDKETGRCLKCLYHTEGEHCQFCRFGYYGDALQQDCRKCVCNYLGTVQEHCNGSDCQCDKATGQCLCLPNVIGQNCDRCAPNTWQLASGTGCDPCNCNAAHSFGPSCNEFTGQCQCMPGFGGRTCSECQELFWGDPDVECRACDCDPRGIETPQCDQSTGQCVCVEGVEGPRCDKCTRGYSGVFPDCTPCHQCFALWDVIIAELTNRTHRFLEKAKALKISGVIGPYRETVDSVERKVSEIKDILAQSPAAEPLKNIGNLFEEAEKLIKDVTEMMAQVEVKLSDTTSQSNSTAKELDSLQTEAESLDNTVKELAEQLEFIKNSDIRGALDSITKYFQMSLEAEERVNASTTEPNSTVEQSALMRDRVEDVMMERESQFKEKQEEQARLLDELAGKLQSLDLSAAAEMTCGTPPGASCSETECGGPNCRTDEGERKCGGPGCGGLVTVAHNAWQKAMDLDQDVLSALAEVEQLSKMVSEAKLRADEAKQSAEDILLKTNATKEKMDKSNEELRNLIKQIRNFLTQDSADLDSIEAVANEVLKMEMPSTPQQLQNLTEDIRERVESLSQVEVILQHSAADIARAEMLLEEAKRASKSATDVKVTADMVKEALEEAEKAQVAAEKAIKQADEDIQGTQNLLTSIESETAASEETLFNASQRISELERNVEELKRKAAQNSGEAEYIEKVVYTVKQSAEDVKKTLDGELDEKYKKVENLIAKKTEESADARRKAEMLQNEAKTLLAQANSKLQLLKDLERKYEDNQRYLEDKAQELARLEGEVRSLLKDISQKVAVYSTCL
T4 sequence (P11047 34-1609 limits assumed, chain 3 of 3): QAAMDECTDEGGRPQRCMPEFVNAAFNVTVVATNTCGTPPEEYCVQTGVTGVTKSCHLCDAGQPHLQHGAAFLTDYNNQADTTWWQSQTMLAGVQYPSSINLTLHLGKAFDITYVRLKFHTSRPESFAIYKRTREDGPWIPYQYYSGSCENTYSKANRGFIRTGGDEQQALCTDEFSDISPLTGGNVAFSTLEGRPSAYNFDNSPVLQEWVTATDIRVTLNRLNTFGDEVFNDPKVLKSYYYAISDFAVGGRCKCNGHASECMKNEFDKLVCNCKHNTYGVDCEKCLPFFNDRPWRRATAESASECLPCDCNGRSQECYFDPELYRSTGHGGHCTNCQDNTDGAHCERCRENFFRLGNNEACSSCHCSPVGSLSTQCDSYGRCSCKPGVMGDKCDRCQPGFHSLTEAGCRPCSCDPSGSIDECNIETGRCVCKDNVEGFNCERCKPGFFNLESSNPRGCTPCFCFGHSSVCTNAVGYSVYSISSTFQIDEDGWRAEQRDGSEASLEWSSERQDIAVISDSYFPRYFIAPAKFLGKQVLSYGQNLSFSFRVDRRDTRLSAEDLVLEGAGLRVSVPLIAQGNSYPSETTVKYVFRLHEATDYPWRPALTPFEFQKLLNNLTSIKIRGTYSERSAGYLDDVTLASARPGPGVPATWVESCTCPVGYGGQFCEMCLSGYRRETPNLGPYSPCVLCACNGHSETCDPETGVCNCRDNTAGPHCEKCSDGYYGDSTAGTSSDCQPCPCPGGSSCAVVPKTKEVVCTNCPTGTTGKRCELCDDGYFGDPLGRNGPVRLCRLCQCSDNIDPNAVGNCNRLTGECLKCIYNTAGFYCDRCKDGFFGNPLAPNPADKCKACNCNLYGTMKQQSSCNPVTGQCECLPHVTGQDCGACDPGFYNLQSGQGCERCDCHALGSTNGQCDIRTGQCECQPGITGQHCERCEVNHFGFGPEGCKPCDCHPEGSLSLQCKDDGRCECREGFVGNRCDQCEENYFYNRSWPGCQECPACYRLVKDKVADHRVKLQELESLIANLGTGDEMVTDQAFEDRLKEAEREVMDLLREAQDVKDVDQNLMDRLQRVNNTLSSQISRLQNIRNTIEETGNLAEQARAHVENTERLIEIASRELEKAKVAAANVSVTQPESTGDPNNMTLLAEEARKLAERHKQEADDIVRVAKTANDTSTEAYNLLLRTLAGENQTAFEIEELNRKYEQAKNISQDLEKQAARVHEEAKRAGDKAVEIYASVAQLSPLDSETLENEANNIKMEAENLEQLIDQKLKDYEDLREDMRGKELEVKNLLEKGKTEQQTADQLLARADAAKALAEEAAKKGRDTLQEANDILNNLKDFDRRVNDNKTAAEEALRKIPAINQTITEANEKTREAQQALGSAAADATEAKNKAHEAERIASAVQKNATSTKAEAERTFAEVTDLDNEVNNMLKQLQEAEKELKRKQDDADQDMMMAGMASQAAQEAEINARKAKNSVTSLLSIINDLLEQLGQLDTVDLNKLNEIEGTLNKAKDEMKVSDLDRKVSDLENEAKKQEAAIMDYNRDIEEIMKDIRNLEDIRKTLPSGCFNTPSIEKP

binding result [1]: no binding
B1: human LAMA4 LG4-5 modules displayed on 293 cells (ligand)
chain: RNSHCHLSNSPRAIEHAYQYGGTANSRQEFEHLKGDFGAKSQFSIRLRTRSSHGMIFYVSDQEENDFMTLFLAHGRLVYMFNVGHKKLKIRSQEKYNDGLWHDVIFIRERSSGRLVIDGLRVLEESLPPTEATWKIKGPIYLGGVAPGKAVKNVQINSIYSFSGCLSNLQLNGASITSASQTFSVTPCFEGPMETGTYFSTEGGYVVLDESFNIGLKFEIAFEVRPRSSSGTLVHGHSVNGEYLNVHMKNGQVIVKVNNGIRDFSTSVTPKQSLCDGRWHRITVIRDSNVVQLDVDSEVNHVVGPLNPKPIDHREPVFVGGVPESLLTPRLAPSKPFTGCIRHFVIDGHPVSFSKAALVSGAVSINSCP
notes: pDisplay construct on 293 cells; vector tags and anchor not written here

binding result [2]: no binding
B2: His-tagged recombinant LAMA4 G-domain variant with LG modules 4-5 (ligand)
chain: B1 chain
notes: also called LAMA4 variant containing the LG modules 4-5; LG4-5

binding result [3]: binds
B3: H2L5 (antibody, V domains shown)
VH: QVQLQQSGAELVKPGASVKVSCKASGYAFSTYWMNWVRQAPGQGLEWIGQIYPGDGDTNYNGKFKGRVTITADKSTSTAYMELSSLRSEDTAVYFCARSDGYYDYWGQGTTVTVSS
VL: DIVLTQSPASLAVSLGERATISCRASESVDSYGTSFMHWYQQKPGQPPKLLISLASSLESGVPARFSGSGSGTDFTLTISPLQAEDVATYYCQQNNEDPPTFGQGTKLEIK
notes: also called VHv2/VLv5; humanized 19C12 antibody H2L5; copies: 2 + 2

binding result [3]: binds
binding result (recombinant laminin 411): binds
B4: H3L3 (antibody, V domains shown)
VH: B3 VH with Q1E
VL: B3 VL with D1N, S53C, G72R, S80D, L82V, Q83E, V87A, Q104A
notes: also called VHv3/VLv3; humanized 19C12 antibody H3L3; copies: 2 + 2
